Experimental findings from publication PMC8789049, “Regulation of AR mRNA translation in response to acute AR pathway inhibition” are described below.

One series concerns the target G3BP1 (UniProt Q13283 1-466). The series is described as follows: EMSA; REMSA: 6.25 nM biotin probe, 100 mM HEPES pH 7.3, 200 mM KCl, 10 mM MgCl2, 10 mM DTT, 5% glycerol, 2 ug tRNA, 20 ul, 30 min, temperature not stated; 6% native PAGE in 0.5x TBE. To be noted: protein: recombinant; tags: His-tag (pET-28a(+)-TEV); chain copies: 2; label: biotin. For orientation: Mobility shift assays separate free from complexed probe on a gel.

Another series concerns the target T1, YTHDF3 (UniProt Q7Z739 1-585).
T1 sequence: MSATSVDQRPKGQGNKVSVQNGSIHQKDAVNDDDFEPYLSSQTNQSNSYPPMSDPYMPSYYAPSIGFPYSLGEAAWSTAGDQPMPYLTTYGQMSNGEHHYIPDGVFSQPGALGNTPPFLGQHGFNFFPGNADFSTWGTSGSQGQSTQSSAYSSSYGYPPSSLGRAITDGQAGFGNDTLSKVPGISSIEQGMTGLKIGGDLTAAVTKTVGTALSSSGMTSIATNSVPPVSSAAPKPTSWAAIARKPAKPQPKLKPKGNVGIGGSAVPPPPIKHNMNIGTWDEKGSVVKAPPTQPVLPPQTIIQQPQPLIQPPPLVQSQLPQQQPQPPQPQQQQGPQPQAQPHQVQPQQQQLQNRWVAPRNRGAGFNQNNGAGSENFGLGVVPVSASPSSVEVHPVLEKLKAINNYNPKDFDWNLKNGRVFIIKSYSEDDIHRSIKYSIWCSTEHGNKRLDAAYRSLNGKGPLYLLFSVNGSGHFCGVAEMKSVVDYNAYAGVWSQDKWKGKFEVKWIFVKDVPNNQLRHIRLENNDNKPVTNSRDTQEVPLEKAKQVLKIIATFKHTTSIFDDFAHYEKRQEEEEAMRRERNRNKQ
The series is described as above. As to conditions: protein: recombinant; tags: His-tag (pET-28a(+)-TEV); label: biotin.

Sequence of G3BP1 (Q13283 whole entry): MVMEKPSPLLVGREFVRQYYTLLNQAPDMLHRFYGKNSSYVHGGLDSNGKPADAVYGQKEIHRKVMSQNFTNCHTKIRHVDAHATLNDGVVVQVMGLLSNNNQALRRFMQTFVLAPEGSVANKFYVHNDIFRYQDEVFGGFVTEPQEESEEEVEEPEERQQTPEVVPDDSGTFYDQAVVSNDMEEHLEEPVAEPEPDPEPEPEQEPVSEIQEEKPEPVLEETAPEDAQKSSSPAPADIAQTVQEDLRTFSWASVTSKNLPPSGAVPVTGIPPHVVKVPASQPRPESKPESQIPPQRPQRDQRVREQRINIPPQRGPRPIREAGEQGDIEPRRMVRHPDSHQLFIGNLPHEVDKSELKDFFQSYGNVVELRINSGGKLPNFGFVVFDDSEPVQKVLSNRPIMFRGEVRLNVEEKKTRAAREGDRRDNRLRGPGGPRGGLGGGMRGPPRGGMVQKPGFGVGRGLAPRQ

As to AACUCAAUGGAACUGACUGAGAUUUACCAC (ssRNA) [8953-UM], the binding result in the series with G3BP1 is on record as “binds”; with YTHDF3 it was “no binding”.

On to GGAUAUUUUGAAGGACUGUCAUAUAUCUUU (ssRNA) [7301-UM], for which the binding result was “binds” with G3BP1 and “no binding” in the series with YTHDF3.

Regarding CCUGUGAGGGACUGGCCACUCAGACCCACU (ssRNA) [6908-UM], the binding result in the series with G3BP1 is reported as “binds”; with YTHDF3 it was “no binding”.

With GGAUAUUUUGAAGGACUGUCAUAUAUCUUU (ssRNA, m6A in GGm6ACU) [7301-m6A], the binding result with YTHDF3 is on record as “binds”.

As to AACUCAAUGGAACUGACUGAGAUUUACCAC (ssRNA, m6A in GAm6ACU) [8953-m6A], the binding result with YTHDF3 is on record as “binds”.

CCUGUGAGGGACUGGCCACUCAGACCCACU (ssRNA, m6A in GGm6ACU) [6908-m6A]: the binding result in the series with YTHDF3 is “binds”.
